The chains are these.
B1: Af1521-c001, wild type Af1521 fused to GFP (other, Archaeoglobus fulgidus, UniProt O28751 1-192, looked up)
chain: MEVLFEAKVGDITLKLAQGDITQYPAKAIVNAANKRLEHGGGVAYAIAKACAGDAGLYTEISKKAMREQFGRDYIDHGEVVVTPAMNLEERGIKYVFHTVGPICSGMWSEELKEKLYKAFLGPLEKAEEMGVESIAFPAVSAGIYGCDLEKVVETFLEAVKNFKGSAVKEVALVIYDRKSAEVALKVFERSL
notes: Archaeoglobus fulgidus macrodomain protein Af1521, full length, wild type; pNIC28 derived vector; also called Af1521-GFP; wild type Af1521-GFP fusion; source: E. coli BL21(DE3)T1R pRARE2, purified (IMAC, SEC); not shown: eGFP, C-terminal, kept
B2: MacroGreen (Af1521-c007), Af1521 K35E,G42E,I144R,Y145R fused to GFP (other, Archaeoglobus fulgidus, UniProt O28751 1-192, looked up)
chain: B1 chain with K35E, G42E, I144R, Y145R
notes: Archaeoglobus fulgidus macrodomain protein Af1521, full length, with K35E, G42E, I144R, Y145R; Synthetic codon-optimised cDNA in a pNIC28 derived vector; also called GFP-fusion quadruple mutant; source: E. coli BL21(DE3)T1R pRARE2, purified (IMAC, SEC); not shown: eGFP, C-terminal, kept
B3: auto-MARylated PARP10 catalytic domain (domain or fragment, UniProt Q53GL7 819-1007, looked up)
chain: NLERLAENTGEFQEVVRAFYDTLDAARSSIRVVRVERVSHPLLQQQYELYRERLLQRCERRPVEQVLYHGTTAPAVPDICAHGFNRSFCGRNATVYGKGVYFARRASLSVQDRYSPPNADGHKAVFVARVLTGDYGQGRRGLRAPPLRGPGHVLLRYDSAVDCICQPSIFVIFHDTQALPTHLITCEHV
modifications: auto-mono-ADP-ribosylated (MARylated) on glutamic and aspartic acid, serine, lysine and arginine side chains; sites not given
notes: PARP10 catalytic domain, construct PARP10 819-1007; also called PARP10 819-1007; source: auto-modified with NAD+

Experiment [1] deals with T1, PARylated PARP1 (auto-modified catalytic domain construct) (UniProt P09874 662-1011, auto-poly-ADP-ribosylated (PARylated) predominantly on carboxylic acid side chains; sites not given).
T1 construct: PARP1 catalytic domain construct, PARP1 662-1011; also called PARP1 662-1011; source: auto-modified with 1 mM NAD+
Briefly: far-Western, overlay or dot blot; overlay in multiwell plates: MAR- or PARylated protein adsorbed to protein binding 96-well plates (MaxiSorp), blocked with 1% BSA, overlaid with the macrodomain-GFP fusion (1 µM in Fig. 2) in TBST pH 7.5 for 5 min at room temperature, washed, GFP fluorescence read. The note with it: both partners purified.

In experiment [2] the target is B2. Description: SPR; MacroGreen covalently immobilised, auto-MARylated PARP10 catalytic domain flowed over; apparent KD from the kinetics of binding and unbinding. The note with it: both partners purified. For orientation: In SPR one partner is held on a chip, and binding of the other changes the refractive index at the surface.

Residue numbers refer to the chain shown, from its start. Numbers in names are those of the source.

T1 sequence (P09874 662-1011): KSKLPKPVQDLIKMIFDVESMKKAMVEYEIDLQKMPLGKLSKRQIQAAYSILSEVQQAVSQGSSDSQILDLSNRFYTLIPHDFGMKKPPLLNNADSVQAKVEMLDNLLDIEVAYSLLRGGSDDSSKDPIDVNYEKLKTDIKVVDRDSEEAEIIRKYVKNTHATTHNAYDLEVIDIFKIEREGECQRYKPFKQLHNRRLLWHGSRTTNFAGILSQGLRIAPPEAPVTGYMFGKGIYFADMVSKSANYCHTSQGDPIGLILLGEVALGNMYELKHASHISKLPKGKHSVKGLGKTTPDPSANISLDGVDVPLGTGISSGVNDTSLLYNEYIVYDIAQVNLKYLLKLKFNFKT

For the molecule B1, the binding result in experiment [1] is recorded as “binds”.

On to B2, for which the binding result in experiment [1] is “binds”.

What is called stoichiometry N is the number of molecules, sites or subunits per partner or assembly. As to B3, in experiment [2], the Kd turned out to be 30 nM and the “stoichiometry N” value was determined as 1.

For the origin of these results see publication PMC8319303, “MacroGreen, a simple tool for detection of ADP-ribosylated proteins” (Communications Biology, 2021).
